Results published in article PMC3060798, “Molecular Determinants of S100B Oligomer Formation” (PLoS ONE, 2011).
Where “and” joins values, the source holds several entries; their conditions need not be identical. Identical values can stand only once. One block for each binder: values may come before it.

Legend:
[1] = target: the molecule itself; experiment: SEC; hexamer, tetramer and dimer fractions collected after imidazol triggering, reinjected on Superdex 200 and analysed repeatedly during storage for up to 6 months in solution at 4 °C
[2] = target: T1, p53 target peptide (Met followed by residues 367-388 of p53, Phe 385 changed to Trp) (Phe 385 changed to Trp (stands in the printed letters)); experiment: other fluorescence titration; p53 peptide (0.07-1.3 µM) titrated with S100B dimer, tetramer or hexamer stock; 10 mM BisTris, 5 mM CaCl2, pH 7, 25 °C; Trp emission at 330 nm, excitation 295 nm; 1:1 binding model fitted against total S100B monomer concentration; details: both partners purified
T1 construct: added Met before the p53 residues; p53, C-terminal regulatory domain, residues 367-388 with Phe 385 changed to Trp; the peptide was cleaved off; also called p53 peptide; target peptide from p53; source: E. coli ER2566, purified (DEAE cellulose, chitin column, cleaved off from the intein with 50 mM DTT, G25 gel filtration)
T1 peptide: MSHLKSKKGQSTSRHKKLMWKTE

[3] = target: the molecule itself; experiment: SEC; analytical gel filtration on Superdex 200; step: dimers to tetramer, hexamer and higher oligomers; 20 mg/ml trigger-free S100B dimer with imidazol (20-900 mM, optimum 90 mM), 1 mM EDTA, 1 mM DTT, 0.25 M NaCl, pH 7.0, lyophilized, dissolved, incubated 24 h at 4 °C
[4] = target: the molecule itself; experiment: dynamic light scattering; ZetaSizer Nano-S; fractions collected directly from the Superdex200 column in 25 mM sodium carbonate with 25 mM HCl, pH 7.3

stoichiometry N [2]: 2 peptides per dimer
B1: S100B dimer (highly pure, trigger-free) (natural protein, rat, UniProt P04631 1-92, looked up)
chain: MSELEKAMVALIDVFHQYSGREGDKHKLKKSELKELINNELSHFLEEIKEQEVVDKVMETLDEDGDGECDFQEFMAFVSMVTTACHEFFEHE
notes: S100B, rat; plasmid with the rat S100B gene (gift from D. Weber); monomer 10.7 kDa, dimer 21.5 kDa as printed; Homodimer; No tag is mentioned; In rows of m1 with m1 the step meant (monomers to dimer, or dimers to tetramer and higher) is told in the assay's format; also called trigger-free S100B; trigger-free S100B dimer
stoichiometry N [1]: 2
stoichiometry N [3]: 4 and 6

stoichiometry N [2]: 4 peptides per tetramer
B2: S100B tetramer (natural protein, rat, UniProt P04631 1-92, looked up)
chain: B1 chain
notes: S100B, rat; same chain as m1, isolated as tetramer (43.0 kDa expected); Same polypeptide as m1 in another oligomeric state; free of imidazol after gel filtration; also called tetramer fraction; source: E. coli BL21 De3 PLysS star; trigger-free dimer triggered with 90 mM imidazol, tetramer fraction collected from Superdex 200 gel filtration
stoichiometry N [4]: 4

stoichiometry N [2]: 6 peptides per hexamer
B3: S100B hexamer (natural protein, rat, UniProt P04631 1-92, looked up)
chain: B1 chain
notes: S100B, rat; same chain as m1, isolated as hexamer (64.5 kDa expected); Same polypeptide as m1 in another oligomeric state; free of imidazol after gel filtration; also called hexamer fraction; source: E. coli BL21 De3 PLysS star; trigger-free dimer triggered with 90 mM imidazol, hexamer fraction collected from Superdex 200 gel filtration
stoichiometry N [4]: 6
